The target of test [1] is 真SARS-CoV-2病毒 Victoria/01/2020 的刺突 (SARS-CoV-2). Nature of the test: cell-based or functional assay.
The target of test [2] is T1, HCoV-229E刺突 (HCoV-229E, UniProt P15423 16-1173).
T1 construct: whole, on cells
T1 sequence: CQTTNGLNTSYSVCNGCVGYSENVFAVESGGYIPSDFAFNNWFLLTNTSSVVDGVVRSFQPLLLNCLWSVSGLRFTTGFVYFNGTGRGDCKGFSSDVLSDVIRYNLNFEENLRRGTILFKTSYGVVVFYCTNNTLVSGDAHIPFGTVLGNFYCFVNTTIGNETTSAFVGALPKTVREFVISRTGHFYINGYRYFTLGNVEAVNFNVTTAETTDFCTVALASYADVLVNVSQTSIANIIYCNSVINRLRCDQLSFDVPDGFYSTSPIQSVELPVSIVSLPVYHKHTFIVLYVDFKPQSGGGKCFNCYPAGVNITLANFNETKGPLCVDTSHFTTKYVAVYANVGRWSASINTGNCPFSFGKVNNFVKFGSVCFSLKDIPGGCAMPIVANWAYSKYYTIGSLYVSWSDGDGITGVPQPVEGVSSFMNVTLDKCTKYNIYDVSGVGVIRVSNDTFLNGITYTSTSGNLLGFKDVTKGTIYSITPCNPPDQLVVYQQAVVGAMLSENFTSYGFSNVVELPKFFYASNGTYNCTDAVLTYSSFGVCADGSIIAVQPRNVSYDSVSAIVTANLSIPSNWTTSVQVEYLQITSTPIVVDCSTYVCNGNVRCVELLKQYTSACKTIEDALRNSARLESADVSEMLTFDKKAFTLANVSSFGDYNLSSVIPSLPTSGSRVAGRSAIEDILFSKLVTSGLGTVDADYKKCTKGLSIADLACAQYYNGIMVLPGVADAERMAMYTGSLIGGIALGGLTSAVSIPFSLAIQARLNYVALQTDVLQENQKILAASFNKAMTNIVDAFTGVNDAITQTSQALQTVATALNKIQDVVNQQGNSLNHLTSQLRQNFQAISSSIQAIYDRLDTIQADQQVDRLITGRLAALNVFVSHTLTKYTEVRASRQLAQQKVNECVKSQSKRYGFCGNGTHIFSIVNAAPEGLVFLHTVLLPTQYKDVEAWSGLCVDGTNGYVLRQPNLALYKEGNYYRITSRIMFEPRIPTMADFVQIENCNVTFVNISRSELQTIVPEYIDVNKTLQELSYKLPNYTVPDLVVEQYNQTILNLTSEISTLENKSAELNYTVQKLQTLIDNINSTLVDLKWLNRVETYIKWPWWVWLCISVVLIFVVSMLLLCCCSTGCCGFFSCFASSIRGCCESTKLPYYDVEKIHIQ
Nature of the test: FACS on transfected HEK293T cells.

Test [3] deals with T2, HCoV-HKU1刺突 (HCoV-HKU1, UniProt Q5MQD0 13-1356).
T2 construct: whole, on cells
T2 sequence: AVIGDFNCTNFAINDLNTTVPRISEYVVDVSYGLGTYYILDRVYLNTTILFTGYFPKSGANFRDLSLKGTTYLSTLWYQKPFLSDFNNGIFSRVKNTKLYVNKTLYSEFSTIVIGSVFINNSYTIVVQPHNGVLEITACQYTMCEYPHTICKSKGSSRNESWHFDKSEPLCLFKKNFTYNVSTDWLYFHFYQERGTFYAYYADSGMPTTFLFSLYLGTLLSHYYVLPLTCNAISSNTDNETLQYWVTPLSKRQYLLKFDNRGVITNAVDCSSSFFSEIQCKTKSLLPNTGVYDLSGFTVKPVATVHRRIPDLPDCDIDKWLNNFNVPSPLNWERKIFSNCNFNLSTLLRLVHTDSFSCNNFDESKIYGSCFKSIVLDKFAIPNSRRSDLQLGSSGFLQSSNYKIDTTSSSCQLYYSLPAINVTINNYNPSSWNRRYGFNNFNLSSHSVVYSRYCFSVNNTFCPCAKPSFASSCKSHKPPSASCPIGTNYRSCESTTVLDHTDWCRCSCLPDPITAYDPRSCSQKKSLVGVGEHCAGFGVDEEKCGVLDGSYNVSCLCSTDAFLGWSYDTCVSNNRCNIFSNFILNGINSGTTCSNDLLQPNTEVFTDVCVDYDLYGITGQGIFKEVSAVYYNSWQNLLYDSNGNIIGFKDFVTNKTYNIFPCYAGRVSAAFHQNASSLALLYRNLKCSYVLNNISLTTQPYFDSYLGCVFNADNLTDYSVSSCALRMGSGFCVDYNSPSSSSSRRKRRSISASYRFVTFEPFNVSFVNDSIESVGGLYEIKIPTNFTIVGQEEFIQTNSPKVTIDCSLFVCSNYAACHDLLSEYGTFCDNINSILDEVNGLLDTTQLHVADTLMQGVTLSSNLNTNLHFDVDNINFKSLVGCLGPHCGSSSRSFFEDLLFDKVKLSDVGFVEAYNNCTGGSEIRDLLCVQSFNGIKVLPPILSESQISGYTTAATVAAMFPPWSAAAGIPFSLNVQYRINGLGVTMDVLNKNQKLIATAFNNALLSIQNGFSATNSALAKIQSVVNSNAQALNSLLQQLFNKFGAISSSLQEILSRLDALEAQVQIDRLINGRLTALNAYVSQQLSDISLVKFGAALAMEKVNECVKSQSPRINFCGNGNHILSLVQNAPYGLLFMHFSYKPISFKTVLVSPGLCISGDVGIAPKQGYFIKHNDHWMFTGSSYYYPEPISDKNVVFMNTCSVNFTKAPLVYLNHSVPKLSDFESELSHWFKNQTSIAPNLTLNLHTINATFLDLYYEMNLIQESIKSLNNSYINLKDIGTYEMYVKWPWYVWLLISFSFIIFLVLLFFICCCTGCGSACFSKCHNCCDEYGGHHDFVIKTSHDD
As to the kind of experiment: FACS on transfected HEK293T cells.

The target of test [4] is T3, HCoV-NL63刺突 (HCoV-NL63, UniProt Q6Q1S2 19-1356).
T3 construct: whole, on cells
T3 sequence: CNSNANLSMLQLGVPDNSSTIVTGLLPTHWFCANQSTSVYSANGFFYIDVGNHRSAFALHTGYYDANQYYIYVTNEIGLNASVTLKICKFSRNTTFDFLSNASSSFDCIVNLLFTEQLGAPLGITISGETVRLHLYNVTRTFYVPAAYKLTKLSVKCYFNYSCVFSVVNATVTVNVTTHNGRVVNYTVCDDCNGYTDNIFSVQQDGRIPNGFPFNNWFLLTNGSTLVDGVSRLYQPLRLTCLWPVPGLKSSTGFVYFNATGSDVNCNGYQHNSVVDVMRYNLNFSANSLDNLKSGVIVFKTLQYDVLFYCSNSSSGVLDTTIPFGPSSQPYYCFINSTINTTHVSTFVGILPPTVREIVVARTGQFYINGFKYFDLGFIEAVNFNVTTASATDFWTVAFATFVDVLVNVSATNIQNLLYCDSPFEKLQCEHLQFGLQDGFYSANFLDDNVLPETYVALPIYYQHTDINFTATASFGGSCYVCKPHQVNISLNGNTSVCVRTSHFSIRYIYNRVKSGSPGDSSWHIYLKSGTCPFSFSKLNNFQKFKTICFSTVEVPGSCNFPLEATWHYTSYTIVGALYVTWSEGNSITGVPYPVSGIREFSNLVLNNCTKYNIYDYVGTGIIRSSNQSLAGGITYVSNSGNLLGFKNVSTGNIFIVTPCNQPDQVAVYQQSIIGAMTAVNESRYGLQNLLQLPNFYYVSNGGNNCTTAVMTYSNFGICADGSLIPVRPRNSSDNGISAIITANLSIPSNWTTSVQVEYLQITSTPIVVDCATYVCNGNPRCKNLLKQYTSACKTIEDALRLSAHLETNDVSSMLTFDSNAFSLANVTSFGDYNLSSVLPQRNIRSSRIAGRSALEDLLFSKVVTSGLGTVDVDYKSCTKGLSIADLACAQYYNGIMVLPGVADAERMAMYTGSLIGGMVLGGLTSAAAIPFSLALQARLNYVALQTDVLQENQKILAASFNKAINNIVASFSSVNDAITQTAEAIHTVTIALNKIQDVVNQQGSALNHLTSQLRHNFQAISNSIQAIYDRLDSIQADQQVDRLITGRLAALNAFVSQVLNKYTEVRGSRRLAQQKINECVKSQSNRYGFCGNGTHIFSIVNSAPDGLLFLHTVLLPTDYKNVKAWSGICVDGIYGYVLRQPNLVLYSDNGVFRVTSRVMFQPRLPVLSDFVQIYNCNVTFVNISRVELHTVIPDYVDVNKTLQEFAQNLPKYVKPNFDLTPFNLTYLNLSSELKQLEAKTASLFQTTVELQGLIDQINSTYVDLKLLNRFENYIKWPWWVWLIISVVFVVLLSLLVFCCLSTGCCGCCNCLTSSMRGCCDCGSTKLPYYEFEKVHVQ
As to the kind of experiment: FACS on transfected HEK293T cells.

For test [5], the target named is T4, HCoV-OC43刺突 (HCoV-OC43, UniProt P36334 14-1353).
T4 construct: whole, on cells
T4 sequence: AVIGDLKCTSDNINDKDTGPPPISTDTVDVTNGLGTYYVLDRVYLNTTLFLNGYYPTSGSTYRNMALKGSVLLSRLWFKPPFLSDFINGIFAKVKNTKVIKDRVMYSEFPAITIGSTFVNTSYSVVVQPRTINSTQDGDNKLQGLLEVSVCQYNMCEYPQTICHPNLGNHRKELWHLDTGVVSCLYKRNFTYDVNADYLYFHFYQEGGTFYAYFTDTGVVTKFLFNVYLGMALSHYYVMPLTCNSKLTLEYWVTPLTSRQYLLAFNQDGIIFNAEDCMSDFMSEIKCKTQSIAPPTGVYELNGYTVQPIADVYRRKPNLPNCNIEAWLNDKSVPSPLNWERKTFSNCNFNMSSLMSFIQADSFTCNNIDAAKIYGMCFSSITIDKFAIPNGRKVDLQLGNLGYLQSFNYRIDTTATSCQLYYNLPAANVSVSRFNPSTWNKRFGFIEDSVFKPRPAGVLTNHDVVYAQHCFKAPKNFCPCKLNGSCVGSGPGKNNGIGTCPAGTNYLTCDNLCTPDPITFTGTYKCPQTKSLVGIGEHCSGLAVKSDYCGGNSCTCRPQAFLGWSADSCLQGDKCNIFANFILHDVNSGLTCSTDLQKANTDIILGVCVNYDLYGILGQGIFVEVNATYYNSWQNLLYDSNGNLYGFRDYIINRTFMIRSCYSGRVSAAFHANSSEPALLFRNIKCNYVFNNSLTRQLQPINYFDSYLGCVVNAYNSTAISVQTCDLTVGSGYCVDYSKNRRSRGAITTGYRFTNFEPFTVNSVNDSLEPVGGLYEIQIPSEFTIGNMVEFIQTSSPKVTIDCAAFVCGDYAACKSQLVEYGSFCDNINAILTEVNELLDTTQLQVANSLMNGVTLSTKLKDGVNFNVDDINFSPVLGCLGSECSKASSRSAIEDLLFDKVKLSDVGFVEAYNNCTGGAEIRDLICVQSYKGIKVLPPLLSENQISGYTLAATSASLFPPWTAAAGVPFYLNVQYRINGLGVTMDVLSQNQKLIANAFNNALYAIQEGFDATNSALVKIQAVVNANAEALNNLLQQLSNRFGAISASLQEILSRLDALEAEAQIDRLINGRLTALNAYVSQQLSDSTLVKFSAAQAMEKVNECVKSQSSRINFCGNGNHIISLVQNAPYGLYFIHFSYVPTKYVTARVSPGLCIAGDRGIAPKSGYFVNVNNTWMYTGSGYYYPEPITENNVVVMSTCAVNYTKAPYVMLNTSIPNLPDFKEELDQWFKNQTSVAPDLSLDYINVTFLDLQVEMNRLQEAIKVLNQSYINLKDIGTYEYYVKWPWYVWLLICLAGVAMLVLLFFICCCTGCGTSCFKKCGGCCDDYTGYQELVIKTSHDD
Nature of the test: FACS on transfected HEK293T cells.

B1: S-D4 (antibody, V domains shown)
VH: QVQLQESGGGVVQPGRSLRLSCEVSGFTFSDYGMHWVRQAPGKGLEWVAVIWSEGSTEYYADSVKGRFTISRDNSKDTLYLQMNSLRAEDTAVYYCARPGYPTSTDRSPAAAGARQYYYYGMDVWGQGTTVTVSS
VL: NFMLTQPHSVSESPGKTVTISCTRSGGSGAANYVQWYQQRPGSSPTTLIYEDSRRPPGVPDRFSGSVDTSSNSASLTISGLQTEDEADYYCQSYDSSNHVVFGGGTKLTVLG
notes: also called S-D4二聚体; S-D4 IgG4
For the molecule B1, the “NT50, 真病毒中和 (Victoria/01/2020)” value in test [1] was 2.04 nM. Also, the binding result in test [2], in test [3], in test [4] and in test [5] was “no binding” in each case.

B2: S-E6 (antibody, V domains shown)
VH: QVTLRESGPGLVKPSETLSLTCAVSGGSLSSVNYYWSWIRQHPGKGLEWIGYIYYSGSTNYNPSLKSRVTMSLDTSKNQFSLKLSSVTAADTAVYYCATPGAIMGALHIWGQGTLVTVSS
VL: QAVLTQPSSASSTPGQRVIISCSGSSSNIGSNTVSWYQQVPGAAPKLLIYFDYRRPSGVPDRFSGTRSGTSASLGISGLQSEDEADYYCAAWDDSLSAWVFGRGTKLTVLG
notes: also called S-E6二聚体; 二聚体S-E6
For the molecule B2, the “NT50, 真病毒中和 (Victoria/01/2020)” value in test [1] was found to be 0.15 nM. Also, the binding result in test [2], in test [3], in test [4] and in test [5] was “no binding” in each case.

B3: S-B8 (antibody, V domains shown)
VH: QVQLVQSGGGLIQPGGSLRLSCAASGFTVSLSHMNWVRQAPGKGLEWVSITYGDGNSDYADSVKGRFTISRDNSKNTLYLQMNSLRAEDTAVYYCAREYYYGMDVWGQGTTVTVSS
VL: not shown
notes: also called S-B8二聚体
On to B3, for which, in test [1], the “NT50, 真病毒中和 (Victoria/01/2020)” value was 0.88 nM. The binding result in test [2], in test [3], in test [4] and in test [5] was “no binding” in each case.

These data come from patent CN116406375A (UNIV SHANGHAI TECHNOLOGY, dated 2023).
